Measured values as given in patent US20250297004A1, “NECTIN-4 BINDING AGENTS” (INNATE PHARMA, priority 2022, published 2025).
Substitutions are numbered along the chain they refer to.

Key:
[1] = target: T1, rat Nectin-4 protein expressed on CHO cells (rat, UniProt Q8R007 31-508 (mouse entry)); test: flow cytometry on CHO cells expressing rat Nectin-4, Median MFI (PE)
T1 construct: no cleavage site is stated; also called Rat Nectin-4 V5
T1 chain: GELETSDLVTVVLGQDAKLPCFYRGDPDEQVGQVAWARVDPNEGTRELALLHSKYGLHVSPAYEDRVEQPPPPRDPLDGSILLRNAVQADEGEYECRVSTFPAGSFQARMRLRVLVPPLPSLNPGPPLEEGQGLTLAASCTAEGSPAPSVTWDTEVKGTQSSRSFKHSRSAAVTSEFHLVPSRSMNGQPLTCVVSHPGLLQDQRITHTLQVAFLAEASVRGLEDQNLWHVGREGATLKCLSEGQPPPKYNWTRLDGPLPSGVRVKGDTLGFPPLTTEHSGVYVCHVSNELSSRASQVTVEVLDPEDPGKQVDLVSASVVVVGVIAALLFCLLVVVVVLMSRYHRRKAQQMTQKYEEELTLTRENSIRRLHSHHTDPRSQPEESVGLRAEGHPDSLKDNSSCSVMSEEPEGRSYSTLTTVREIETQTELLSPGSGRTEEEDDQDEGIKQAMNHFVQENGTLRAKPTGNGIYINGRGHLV
Method: (§1) Anti-Nectin-4 antibodies were tested by flow cytometry for binding to different CHO cell lines made to express respectively the mouse, cynomolgus and rat Nectin-4 protein (including an N-terminal V5 tag not shown in the sequences below).

[2] = target: T2, mouse Nectin-4 protein expressed on CHO cells (mouse, UniProt Q8R007 32-508); test: flow cytometry on CHO cells expressing mouse Nectin-4
T2 construct: also called Mouse Nectin-4-V5
T2 sequence: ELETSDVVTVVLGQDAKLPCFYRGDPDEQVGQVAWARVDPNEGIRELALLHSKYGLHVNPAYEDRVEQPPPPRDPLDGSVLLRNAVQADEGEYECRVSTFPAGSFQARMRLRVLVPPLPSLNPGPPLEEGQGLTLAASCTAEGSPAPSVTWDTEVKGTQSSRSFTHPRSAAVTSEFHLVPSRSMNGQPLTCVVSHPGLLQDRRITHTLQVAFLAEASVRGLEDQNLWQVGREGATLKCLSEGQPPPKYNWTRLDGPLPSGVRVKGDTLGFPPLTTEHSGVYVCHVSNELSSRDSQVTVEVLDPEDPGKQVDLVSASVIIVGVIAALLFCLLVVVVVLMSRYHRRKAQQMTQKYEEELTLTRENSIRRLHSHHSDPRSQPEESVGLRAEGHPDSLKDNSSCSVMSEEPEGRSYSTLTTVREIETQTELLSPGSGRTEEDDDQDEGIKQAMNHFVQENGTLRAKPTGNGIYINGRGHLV

[3] = target: T3, human Nectin-4 expressed on cells (human, UniProt Q96NY8 32-510); test: cell-based or functional assay
T3 sequence: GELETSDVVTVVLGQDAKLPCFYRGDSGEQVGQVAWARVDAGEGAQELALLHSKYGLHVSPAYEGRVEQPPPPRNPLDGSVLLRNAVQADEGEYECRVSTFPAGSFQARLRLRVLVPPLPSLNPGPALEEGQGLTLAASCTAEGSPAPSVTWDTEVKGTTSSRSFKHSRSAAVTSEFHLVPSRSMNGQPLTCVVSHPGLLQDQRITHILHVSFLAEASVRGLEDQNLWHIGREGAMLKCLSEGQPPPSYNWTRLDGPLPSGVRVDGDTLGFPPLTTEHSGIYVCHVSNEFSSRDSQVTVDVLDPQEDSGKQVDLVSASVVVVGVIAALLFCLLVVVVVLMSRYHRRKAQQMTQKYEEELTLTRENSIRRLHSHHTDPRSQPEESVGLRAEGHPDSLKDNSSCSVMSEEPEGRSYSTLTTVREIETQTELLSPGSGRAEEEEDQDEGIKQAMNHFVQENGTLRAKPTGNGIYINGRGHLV

[4] = target: T4, human Nectin-4 Mutant 1 (human, UniProt Q96NY8 32-510); test: binding to HEK293T cells expressing Nectin-4 mutant; '-' means association does not occur
T4 construct: Expressed on transfected HEK293T cells; also called S58P/G59D/Q61A/N106D/P107A
T4 chain: T3 sequence with S27P, G28D, Q30A, N75D, P76A

[5] = target: T5, human Nectin-4 Mutant 7 (human, UniProt Q96NY8 32-510); test: binding to HEK293T cells expressing Nectin-4 mutant
T5 construct: Expressed on transfected HEK293T cells; also called S195A/K197T/S199A
T5 chain: T3 sequence with S164A, K166T, S168A

[6] = target: T6, human Nectin-4 (Homo sapiens, UniProt Q96NY8); test: Species cross-reactivity, binding to Nectin-4
T6 sequence (Q96NY8 32-510): T3 sequence
Method: as §1
Antibody 5E7 bound human, cynomolgus, as well as rat Nectin 4 proteins but lack binding to the mouse Nectin 4 protein. FIGS. 6A and 6B show binding of anti-Nectin-4 antibodies on rat and cynomolgus Nectin-4-expressing CHO cell lines.

B1: chimeric parental 5E7 antibody (antibody, V domains shown)
VH: QVQLQQPGAELVKPGASVKLSCKASGYIFTSYWMHWVKQRPGQGLEWIGEIDPSDSYTNYNQKFKGKATLTLDKSSSTTYMQLSSLTSEDSAVYYCVRGYGNYGDYWGQGTTLTVSS
VL: DVVMTQAAFSNPVTLGTSASISCRSSKSLLHSNGITYLYWYLQKPGQSPQLLIYQMSNLASGVPDRFSSSGSGTDFTLRISRVEAEDVGVYYCAQNLELPWTFGGGTKLEIKR
notes: Chimeric antibody, murine variable domains with human constant regions; also called ch5E7; CHG1-M-1N4-5E7
EC50 (read off the curve) [1]: ~0.1 µg/mL
binding result [2]: no binding
internalization efficiency on SUM190, normalized to chimeric parental antibody (Fab-ZAP, CTG), experiment 1 [3]: 100 % of chimeric parental
internalization efficiency on SUM190, normalized to chimeric parental antibody (Fab-ZAP, CTG), experiment 2 [3]: 100 % of chimeric parental

B2: N41 (antibody, V domains shown)
VH: QVQLKQSGPGLVQPSQSLSITCTVSGFSLTNYGVHWVRQSPGKGLEWLGVIWSGGSTDYNAAFISRLSISKDTSKSQVFFKMNSLQADDTAIYYCARELIHAMDNWGQGTSVTVSS
VL: DIQMTQSPASLSVSVGETVTITCRASENIYSNLAWYQQKQGNSPQLLVFAATNLADGVPSRFSGSGSGTQYSLKINSLQSEDFGTYYCQHFWGTPTFGGGTKLEIK
binding result [4]: no binding
binding result [5]: binds

B3: 5E7 (antibody, V domains shown)
VH: QVQLQQPGAELVKPGASVKLSCKASGYIFTSYWMHWVKQRPGQGLEWIGEIDPSDSYTNYNQKFKGKATLTLDKSSSTTYMQLSSLTSEDSAVYYCVRGYGNYGDYWGQGTTLTVSSASTKGP
VL: DVVMTQAAFSNPVTLGTSASISCRSSKSLLHSNGITYLYWYLQKPGQSPQLLIYQMSNLASGVPDRFSSSGSGTDFTLRISRVEAEDVGVYYCAQNLELPWTFGGGTKLEIKRTVAAP
binding to human Nectin 4 protein [6]: bound
